Numbering of substitutions follows the chain as printed. Each block holds one binder with its values, some of them ahead of it.
What was measured:
GST-h5MP1 = target: T1, GST-h5MP1 (human, UniProt Q9Y6E2 1-419); experiment: pull-down
T1 sequence (looked up): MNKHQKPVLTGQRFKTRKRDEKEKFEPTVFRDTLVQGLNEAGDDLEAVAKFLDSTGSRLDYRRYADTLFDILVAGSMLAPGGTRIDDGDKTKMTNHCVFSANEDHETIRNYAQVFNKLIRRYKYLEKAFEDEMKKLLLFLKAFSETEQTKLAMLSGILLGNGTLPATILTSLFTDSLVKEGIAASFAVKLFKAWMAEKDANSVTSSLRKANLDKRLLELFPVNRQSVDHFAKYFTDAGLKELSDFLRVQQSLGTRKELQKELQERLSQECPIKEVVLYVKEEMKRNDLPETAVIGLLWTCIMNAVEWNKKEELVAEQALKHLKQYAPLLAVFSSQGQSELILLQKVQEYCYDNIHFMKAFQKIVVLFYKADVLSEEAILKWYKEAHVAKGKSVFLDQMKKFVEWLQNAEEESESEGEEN

h5MP1-BN1 = target: T2, h5MP1-BN1 (human, UniProt Q9Y6E2 1-419, K380Q | K383Q | H386Q | K389Q | K391Q); experiment: ITC
T2 sequence (looked up): T1 sequence (looked up) with K380Q, K383Q, H386Q, K389Q, K391Q

h5MP1 (WT) = target: T3, h5MP1 (WT) (human, UniProt Q9Y6E2 1-419); experiment: ITC
T3 sequence (looked up): T1 sequence (looked up)

binding result (GST-h5MP1): binds
B1: GB-heIF3c_(20-102) (domain or fragment, human, UniProt Q99613 20-102, looked up)
chain: EELVTKPVGGNYGKQPLLLSEDEEDTKRVVRSAKDKRFEELTNLIRTIRNAMKIRDVTKCLEEFELLGKAYGKAKSIVDKEGV

binding result (h5MP1-BN1): binds
binding result (h5MP1 (WT)): binds
B2: heIF2β_(53-136) (domain or fragment, human, UniProt P20042 53-136, looked up)
chain: DLEADEEDTRKKDASDDLDDLNFFNQKKKKKKTKKIFDIDEAEEGVKDLKIESDVQEPTEPEDDLDIMLGNKKKKKKNVKFPDE

Reference: publication PMC8363759 (Cell reports, 2021)
